# Reference: the DeepSol protein solubility set
# Assay: soluble on expression in E. coli; label from the status in PepcDB or PDB records
row,Sequence,soluble on expression in E. coli
1,MSLNFPGSSSLLIVGASTRAAACSAVRAGFQPVCADQFADRDLRAVSEVVIKIDEHCHWLEEILKREPQNWIYTGALENRPEVINAINQRHTLLGNAEESLKKVRDPFFLQDMLVDQPIAISPCLPVDTQTPPRELWLRKPRLSAAGQGISFADSHTTDPTDSTQYYLQQFQPGIPLSALYLACDDCCVLIGTAVQFIGNRALHATGFQFCGGMTLPSMPPEWRHALGKLGHNIARGCHLRGLFGCDLIWNPDGQPGLWLTEVNPRYTALTELFELQYCLPLLRWHFAACRSCDASSAVAGTLADELIQLLKTKEKRTLSTVSKGIMYAPTDLTTPDLPWESSPRQVAWQIPTIADVPDRGTRIPAGTPVCTLYGTGDDQGECLLSMADQILRCQGQIQPELPRDLSRNEVRNMLWPRKESEKLNFSGFFSSRNVSGSFLEDEGHHHHHH,soluble
2,MSLNILDVMKIPAFENANLIAGKAGGEREVQHVNMMDAPDIVDFLHKNELLVTTAYHLKDHPHQLSELIRQMAKRGCAGLGIKTKRYLEDIPKEIIELADSYAFPIIELPEHIRLGDIVNATLSHILDMRSNEGHHHHHH,soluble
3,MSLNISNVLFLLHQKFPDPLPDNPICTREETKLAGHLVNILKLAVDHDIDVEERDEVADETFSDWDSIEFEPNDGVIFSSPTELVFGGRVVTREEANTALDYYRSAKAGKRTLEAMRNRFRWITGRHDMDKLKLYEKDRDNFKESRRNLLKFLGERLYEEVKGRLDSGICLHDRDLKMIALDINKKETHVENFKACQTWITNWKRSYNIVSRKITKFVTRRYVRNKAATLQSAKDFVQGCRMDISSYGPEMIFNADQCGIQKELFGARSLAYLGEKSVERIVQSLSSLTHSFTFLPMIFMNGTLGPKAYMKIAEPTGHFPPSRPIPVCSNLEVHAGKSHIMTKDDMRVWLRNCVAHQQCPKKMLMIVDSWTSFKDHATIQSCMQNGVDLTIRNIPPGTTSLIQPLDVHFNGPWKTLIKNFTSYVMSFCPDYIIANRNNTIMMTSLLYHQVSAALFEPFLKYSWNKAGYTDSHDEFVTPADYCFGDVGEEECGFGGCSEFSFIRCARCNCQICFEHFVVDDQHFCPCP,not soluble
4,MSLNKFVDREGSVVAVYAAKSKAGCSAPDVEKVNQDAFCLVEKYGDSPNLSWFSVMDGHGLNGHLVSDIVRQILHKNVQECPEFNRDIKQALQKGFFRTNCELFQPGIDITMSGTTCVACVFHGSTLYSANVGDSRAIMGRSNGKGGWTSLSLTHDHKPDRPDEEKRILAADGRVGALKGPNGEALGPARVWRKDCDAPGLAMSRSLGDSLAASVGVIDDFIVIASDGLWEFMTNEEVTQIVSRFLDSRDPLGACDGLIEEANRRWRLEDDVIDDTTVVVIFLDVGRKEGHHHHHH,not soluble
5,MSLNKIDMPVLNVKMVPVEKIKSNSYNPNHVAGPEMELLELSILKDGYTQPIVCYCDDKKDEYIIIDGFHRYLIGKSKLDLKELPVVVIDKPLEQRMSSTIRHNRARGKHEIDKMSELVLLLVNEGWDDHKIGKELGMEKEEVLRLKQVTGLKSAFLNHEFSESWDEFVKKNYPKQKDEEGGSHHHHHH,soluble
6,MSLNKPVLPKPAPSISSLSLKLPKADRSIETYRLAASRTFPARLEGPLNRIAFSAVHTVADPFADNDPWLSVAVDWDKTIAFREHVWDLGLGVAEAMDTAQRGMGLDWPTSLELITRSVAAAKRRNALVFSGAGTDHLAVEDARTVDDVIRAYEEQISAVEKVGGRIILMASRALAKLGRNADDYAKVYDRVLSQVREPVIIHWLGDMFDPALTGYWGTKDLDKAMDVAVAVINANAAKVDGVKVSLLDKQREIDMRRRLDKRIRMYTGDDFNYAELIAGDSQGFSHALLGIFDAIAPAASYALSRLAAGDEAGFHDVLGPTVPLSRHIFKAPTRFYKTGVVFMAYLNGHQDHFTMVGGQESARSMLHLAELFRLADQAGLLANPELATRRMTTVLASHGIESEGHHHHHH,not soluble
7,MSLNLTTTVLSLQLEQPFVSNKGSTTTVHQVVIKLTWQEYGGFGTVLCPKETQLSVEQIQQLIQACEPLLSTATPWQFELYQGQLASVVRNQAAMMAGIDMAWHDLLGKVVAQPIHALWGLAGLSIPPTALSLGAQSEQALVAQAAKLAAWPILKLKLTTDSNLDSLRQLREVYAGRIWVDGNGAWDVDQAIAAAQQCHTYGVELIEQPIPAGNLDQLRTIRQHSPIPIVADEDCRGLADVLRLHTCVDVINLKLFKCGGLRQARTMIDVAKQFGLKVMLGCKTESSLGISAIAQLAGLADYLDLDGHLDLVNDPFQGLVIEQGTLRLPQTPGLGLTIQGAIEEGHHHHHH,not soluble
8,MSLNNIAPQSPVMRRLTLQDNPAIARVIRQVSAEYGLTADKGYTVADPNLDELYQVYSQPGHAYWVVEYEGEVVGGGGIAPLTGSESDICELQKMYFLPAIRGKGLAKKLALMAMEQAREMGFKRCYLETTAFLKEAIALYEHLGFEHIDYALGCTGHVDCEVRMLRELEGHHHHHH,soluble
9,MSLNNNDLVAKLWKLCDNLRDGGVSYQNYVNELASLLFLKMCKETGQEAEYLPEGYRWDDLKSRIGQEQLQFYRKMLVHLGEDDKKLVQAVFHNVSTTITEPKQITALVSNMDSLDWYNGAHGKSRDDFGDMYEGLLQKNANETKSGAGQYFTPRPLIKTIIHLLKPQPREVVQDPAAGTAGFLIEADRYVKSQTNDLDDLDGDTQDFQIHRAFIGLELVPGTRRLALMNCLLHDIEGNLDHGGAIRLGNTLGSDGENLPKAHIVATNPPFGSAAGTNITRTFVHPTSNKQLCFMQHIIETLHPGGRAAVVVPDNVLFEGGKGTDIRRDLMDKCHLHTILRLPTGIFYAQGVKTNVLFFTKGTVANPNQDKNCTDDVWVYDLRTNMPSFGKRTPFTDEHLQPFERVYGEDPHGLSPRTEGEWSFNAEETEVADSEENKNTDQHLATSRWRKFSREWIRTAKSDSLDISWLKDKDSIDADSLPEPDVLAAEAMGELVQALSELDALMRELGASDEADLQRQLLEEAFGGVKEEGGSHHHHHH,soluble
10,MSLNNTPRYPQRVRNDLRFRELTVLRVERISAGFQRIVLGGEALDGFTSRGFDDHSKLFFPQPDAHFVPPTVTEEGIVWPEGPRPPSRDYTPLYDELRHELAIDFFIHDGGVASGWAMQAQPGDKLTVAGPRGSLVVPEDYAYQLYVCDESGMPALRRRLETLSKLAVKPQVSALVSVRDNACQDYLAHLDGFNIEWLAHDEQAVDARLAQMQIPADDYFIWITGEGKVVKNLSRRFEAEQYDPQRVRAAAYWHAKEGGSHHHHHH,soluble
11,MSLNPNDFKDELKSVALEKANVNLRLDGDISWSFFPWLGLGLEDIGVSIGSDPEILQFDRAEFGLAILPLLKQKIQVDKVNLVNLKASLNKNAQGQGNWQLDLPDSTPAASSSIPATTASTASSTSANDTVEKLKLPDIQLDELRIENAQVQYRDEQTKQLINATLNVQLNDVQWDKAWPMVMDIAVTQSDLQGKSPIKAKATLNANLAVFPEREALSLDSLVLSADVESELLPTSPISAKLSAANVDVDLPQENVLAEGLALSVLGVNVDAKIQAYQVLSEPQFSAVLTVGEFNPRYLMTRLNLPLPEMSDDTAMTKARANVTLEGSLDSITAQPISITIDDTNIEANAVVDLSPLRWDVSVAGKNLDLDRYLPTPVEKGKDGKVEAITDVDIAAKTESGDLIPIDLIRSLNGHVGMVFENLTAKKLKIDKIELDSTQSNGLVKISPLRAYLYKGSVSSKASLDVRGITPVFNISPAIDGVQIQPLLVDFMDMNKIAGATYLNGELKAKGNSVDDLMSSLQGDLLIDIKKGALVGTNLTKTVCEGIAAVRKEKIDEQQFGPDTPFETMRFPAHIVNGRVSTPGLKISSAGIQVTGDGVVSLPNSSLDYQANVGIAGSELDKACHVNEKVTKLAFPIVCKGKFSDDPAGLCRPDIKGFGKLFADLAEDELKLKVDAEKARLKEGHHHHHH,soluble
12,MSLNPNYSIFAELYDELFDPNMYLSWNGFVQDNSRNNRILDLAGGSGKLAVLLTKSGYQVSILDLSSQMLSLAKQRAENNNFSFDLFQANMAQNWHLNKRFPLISCFADSLNYLSNIGETKRTFFEVFNHLEKNGKFLFDVITPYQVNVVYRNYMYNNDDDPEKIFMWTSFPGDIKNSVDHDLKFFVYQEGIDAFKMVREVHHEQTYPPEKYLSLLKEIGFRNIHLTSDFGRGKITRDTTRAFFVAEKEGHHHHHH,not soluble
13,MSLNQWMELADRVLAGAEVTDEEALSILHCPDEDILLLMHGAFHIRKHFYGKKVKLNMIMNAKSGLCPENCGYCSQSAISKAPIESYRMVNKETLLEGAKRAHDLNIGTYCIVASGRGPSNREVDQVVDAVQEIKETYGLKICACLGLLKPEQAKRLKDAGVDRYNHNLNTSQRNHSNITTSHTYDDRVNTVEIAKESGLSPCSGAIIGMKETKQDVIDIAKSLKALDADSIPVNFLHAIDGTPLEGVNELNPLYCLKVLALFRFINPSKEIRISGGREVNLRTLQPLGLYAANSIFVGDYLTTAGQEETEDHKMLSDLGFEVESVEEMKASLSAKSEGHHHHHH,soluble
14,MSLNRPNHVAPKTLLETLPRDRAESYLNHCSGNSASASALYLWEMDMAAALHEVLSMTEVAVRGAIDAQLQSFAKSHGVASGEWIKERDSLPHLSELRFANGRPLFDHGSLRRMSRKQEGGRTRMHPRSQASTSHGDLIAQVMFGTWGAMLPDKNDSRPQSVQDAINGLWREALQEAFPQYREGHHHHHH,soluble
15,MSLNSSFFKMMEKRSYNRFNQEQKAAITYDMKKHLRIIAGAGSGKTQTICAKAVYLMTQKQVDEERILMITFTRNAANELKKRVDNFSQRKTAVHIGTFHSIFFRIYNEICRKFPEVAMQGIQGDFSKDTAQKVNAVLQQLIRKYNLYIFDQYGEKTIASRLDYWQNMNLSVEEMVQLVKEKYDSIDKNARQPISERLYGLLTELQEQKRSQQLLEFNDVLQNLKSALENEEIQHYIGQKYDYLFIDEFQDTNPLQWEIVKRMTKENRIKLIVVGDDDQSIYGFRGSEPAYIKNFEKEYPTKTLFLLTNYRSRAAIVQGANRLISYNKNDRIPKAMIPAQKEAGVMEAYLFSDTKAESQWLIKQIQTFIQKNGKYKESIILYRSASQTQQLVQSLLKTNIPFVLEADSPYEGIFGIKSFQHFYQKIVHWQTALNLQKKNQAYQQLLRQLMADCYLKKSECDQYFSPKYQNIAVADYILSISPNLKSKSAEIREFEEALRKTDQHQEIYSLVQSYLHLPRIAKEIDQSDQEWIREEVKQHATFRRLQALSQETQATAKELKTREGHHHHHH,not soluble
16,MSLNSTLHIPKAEIHVHLEATITPSLCRKFAERNKVKLSEDIFGSEYAYQWEDFYDFIKRYDIVTGVIYTPEDYYELTYEYLKECASYNVLYVEAMVSSTHAKAKGMTYHSFLDSVHQASQDAERDFGIVSRYLMNGIRHLGADSVQETAKEVLNNPHPALVGFGLAGDELNFPPNLFTKTFDMLKQESYPITVHAGEWDGPENIRNAIHLLHPTRLGHGVRSIEDLDLVKEIVEKDIVLETCPTSNIATKIYENYESHPVKKLHDLGVRVTVNSDDPPFFNATIQGEYDAMAGIGFSAQELLSMTRNAIESSFLPEDKKTEILTKLNEGHHHHHH,soluble
